Tests used:
Experiment in all cases: bead flow cytometry, AUC minus CD4
[1] = target: T1, HCoV-NL63 spike protein (Sino Biological 40604-V08B) (HCoV-NL63, UniProt Q6Q1S2 19-1296)
T1 sequence: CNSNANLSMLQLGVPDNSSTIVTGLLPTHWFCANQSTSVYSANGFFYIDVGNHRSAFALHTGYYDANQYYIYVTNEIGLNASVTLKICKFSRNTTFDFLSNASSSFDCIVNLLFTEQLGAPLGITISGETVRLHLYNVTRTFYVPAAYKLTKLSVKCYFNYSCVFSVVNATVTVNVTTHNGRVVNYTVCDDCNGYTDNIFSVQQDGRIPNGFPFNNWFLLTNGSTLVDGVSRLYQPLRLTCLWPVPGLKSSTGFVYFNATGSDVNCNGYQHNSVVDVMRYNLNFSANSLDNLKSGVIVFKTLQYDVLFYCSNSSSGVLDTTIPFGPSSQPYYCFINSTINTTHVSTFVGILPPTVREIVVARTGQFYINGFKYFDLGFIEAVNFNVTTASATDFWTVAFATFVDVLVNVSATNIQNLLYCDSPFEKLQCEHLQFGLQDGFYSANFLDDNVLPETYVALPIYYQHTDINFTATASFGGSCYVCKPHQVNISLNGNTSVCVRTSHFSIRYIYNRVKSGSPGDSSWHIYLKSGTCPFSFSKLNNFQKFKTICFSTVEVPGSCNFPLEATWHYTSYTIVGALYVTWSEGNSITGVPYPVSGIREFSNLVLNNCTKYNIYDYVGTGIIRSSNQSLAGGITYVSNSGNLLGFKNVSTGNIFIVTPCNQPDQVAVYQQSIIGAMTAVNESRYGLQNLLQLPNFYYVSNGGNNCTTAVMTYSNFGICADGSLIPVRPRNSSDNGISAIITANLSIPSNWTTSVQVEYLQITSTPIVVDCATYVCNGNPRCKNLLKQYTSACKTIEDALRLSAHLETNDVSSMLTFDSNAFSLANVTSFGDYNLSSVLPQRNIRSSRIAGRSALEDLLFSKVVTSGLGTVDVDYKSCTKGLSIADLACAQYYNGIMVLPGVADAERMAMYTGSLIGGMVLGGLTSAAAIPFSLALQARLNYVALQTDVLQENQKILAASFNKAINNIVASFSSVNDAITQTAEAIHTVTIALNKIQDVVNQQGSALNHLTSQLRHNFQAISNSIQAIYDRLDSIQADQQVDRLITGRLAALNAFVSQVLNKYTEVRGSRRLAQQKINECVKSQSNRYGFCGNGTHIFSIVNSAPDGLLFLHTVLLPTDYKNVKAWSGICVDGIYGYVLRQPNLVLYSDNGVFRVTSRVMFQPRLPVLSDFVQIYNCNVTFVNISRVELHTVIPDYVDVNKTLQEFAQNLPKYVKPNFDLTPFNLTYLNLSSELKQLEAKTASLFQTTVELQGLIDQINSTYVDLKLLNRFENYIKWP

[2] = target: T2, HCoV-229E spike protein (Sino Biological 40605-V08B) (HCoV-229E, UniProt P15423 16-1115)
T2 sequence: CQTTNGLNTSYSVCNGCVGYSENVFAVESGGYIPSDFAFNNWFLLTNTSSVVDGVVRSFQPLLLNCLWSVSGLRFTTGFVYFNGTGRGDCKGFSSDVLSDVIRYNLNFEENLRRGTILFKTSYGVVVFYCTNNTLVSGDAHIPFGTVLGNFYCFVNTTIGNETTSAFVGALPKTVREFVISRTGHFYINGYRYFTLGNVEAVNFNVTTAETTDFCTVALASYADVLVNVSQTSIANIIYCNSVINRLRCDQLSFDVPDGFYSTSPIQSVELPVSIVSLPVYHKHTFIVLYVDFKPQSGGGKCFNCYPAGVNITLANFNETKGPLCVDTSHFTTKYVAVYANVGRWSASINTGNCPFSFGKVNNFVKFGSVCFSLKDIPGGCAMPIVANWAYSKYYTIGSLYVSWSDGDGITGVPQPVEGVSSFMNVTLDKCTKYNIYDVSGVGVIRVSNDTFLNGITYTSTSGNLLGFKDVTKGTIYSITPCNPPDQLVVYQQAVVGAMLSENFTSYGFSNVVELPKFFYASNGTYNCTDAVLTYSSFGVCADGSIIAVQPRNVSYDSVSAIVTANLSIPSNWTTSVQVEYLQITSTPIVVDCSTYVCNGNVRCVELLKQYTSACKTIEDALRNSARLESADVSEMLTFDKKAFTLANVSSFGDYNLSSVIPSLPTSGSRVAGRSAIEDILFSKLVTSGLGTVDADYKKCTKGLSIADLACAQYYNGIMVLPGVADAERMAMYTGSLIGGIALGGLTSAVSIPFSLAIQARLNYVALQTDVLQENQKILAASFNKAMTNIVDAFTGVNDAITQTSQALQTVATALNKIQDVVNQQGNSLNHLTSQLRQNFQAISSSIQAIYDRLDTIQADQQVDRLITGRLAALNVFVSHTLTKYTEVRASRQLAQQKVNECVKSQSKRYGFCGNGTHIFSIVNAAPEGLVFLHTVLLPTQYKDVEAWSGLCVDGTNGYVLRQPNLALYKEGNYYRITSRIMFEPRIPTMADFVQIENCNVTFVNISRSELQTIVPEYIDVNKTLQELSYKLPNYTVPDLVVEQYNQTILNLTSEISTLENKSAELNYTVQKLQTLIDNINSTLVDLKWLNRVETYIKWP

[3] = target: SARS-CoV-2 spike receptor binding domain (RBD), recombinant (SARS-CoV-2, UniProt P0DTC2 319-541)
[4] = target: SARS-CoV-2 spike N-terminal domain (NTD), recombinant (SARS-CoV-2, UniProt P0DTC2 14-305)

Measured: binding result

B1: COV77-43 (antibody, V domains shown)
VH: QVQLVESGGGVVQPGRSLRLSCSASGFTFSDYGMNWVRQAPGKGLEWVAMIWYDGSNYFYRDSVKGRFAISRDNSKNMVFLQMDNLRAEDTAVYFCARGTHFWSGLSLDAFDMWGQGTVVTVSS
VL: EIVMTQSPLSLPVTPGEPASISCRSSRSLLHYNGHNYLDWYLQKPGQSPQLLIYLGSNRAPGVPDRFSGSGSGTDFTLKISRVEAEDVGVYYCMQALQLNLITFGQGTRLEIK
no binding (tested: 200 µg/mL): all assays above

B2: COV77-35 (antibody, V domains shown)
VH: QMQLQESGPGLVKPSQTLSLTCAVSGGSISSDGYYWNWVRQHPGKGLELIAYIYYNGRPYYNPSLRSRVNISLDTSMNQFSLRVKSLTAADTAVYYCARGRLGYCAAGSCFLDSFDYWGQGALVTVSS
VL: EIVMTQYPATLSVSPGETATLSCRASESISRNLAWYQQKPGQAPRLLIYGASTRATGIPARFSGSGSGTEFALTISSLQAEDFAVYSCQQYHNWLLTFGGGTKVEIK
no binding (tested: 200 µg/mL): all assays above

B3: COV77-14 (antibody, V domains shown)
VH: QVQLQESGPGLVKASQTLSLTCAVSGGSISSGDYYWTWIRSHPGKGLEWIAYIYYNGRTYYNPSLKSRLTISIDRSKNEFSLKVRSVTAADSAAYYCARGRLGFCAAGSCFLDSLDFWGQGTLVTVSS
VL: EIVMTQSPATLSVSPGERVTLSCRASESISNNLAWYQQKPGQAPRLLIYGASTRATGIPARFSGSGSGTEFALIISSLQSEDFAVYFCQQYYNWLLTFGGGTKVEIK
no binding (tested: 200 µg/mL): all assays above

B4: COV57-45 (antibody, V domains shown)
VH: QVQLVQSGTEVKKPGSSVKVSCRASGGTLSSYSVSWVRQAPGQGLEWMGRIIPILDKKTYAQKYQGRVTILADTSTSTVYMELSSLKSDDSAVYFCTTFDYDTSGQRDQHDYWGQGTPVTVSS
VL: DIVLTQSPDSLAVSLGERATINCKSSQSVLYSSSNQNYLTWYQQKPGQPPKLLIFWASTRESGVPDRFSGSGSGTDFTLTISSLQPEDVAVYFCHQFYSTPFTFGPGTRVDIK
no binding (tested: 200 µg/mL): all assays above

B5: COV77-76 (antibody, V domains shown)
VH: QVQLQESGPGLVKPSETLSLTCTVSGGSISSFYWSWIRQPPGKRLEWIGYIYYRGSTNYNPSLKSRVTMSVDTSKNQFSLKLSSVTAADTAVYYCARELPNNWLDPWGQGTLVTVSS
VL: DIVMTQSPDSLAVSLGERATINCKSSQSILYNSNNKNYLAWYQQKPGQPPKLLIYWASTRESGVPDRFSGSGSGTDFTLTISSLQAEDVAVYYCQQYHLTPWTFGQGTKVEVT
no binding (tested: 200 µg/mL): all assays above

B6: COV89-03 (antibody, V domains shown)
VH: QVQLQESGPGLVKPSETLSLTCTVSGGSIRSNYWSWIRQPPGKRLEWLGYIYYSGSTNYNPSLKSRVTISVDTSKNQFSLNLSSVTAADTAVYYCVREMPYNWIDPWGQGTLVTVSS
VL: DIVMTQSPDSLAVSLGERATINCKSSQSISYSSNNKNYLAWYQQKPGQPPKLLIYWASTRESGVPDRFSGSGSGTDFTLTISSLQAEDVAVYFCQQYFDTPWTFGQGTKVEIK
no binding (tested: 200 µg/mL): all assays above

B7: COV77-46 (antibody, V domains shown)
VH: QVQLQESGPGLVKPSQPLSLTCAVSGDSISSGGNYWSWIRQHPGKGLECIAYFYYTGRTYYNPSLKSRVTISLDTSKNQFSLKVSSVTAADTAVYFCARGRLGHCGGGSCFLDPLDYWGQGSLVTVSS
VL: EIVMTQSPATLSVSPGERATLSCRASERISSNLAWSQHKVGQAPRLLIYGASTRATGIPARFSGSGSGTEFTLTISSLQSEDFAVYYCHQYHNWLLTFGGGTKVEIK
no binding (tested: 200 µg/mL): all assays above

B8: COV93-60 (antibody, V domains shown)
VH: QVQLQESGPGLVKPSETLFLTCAVSGGSINSSYWSWIRQPPGKGLEWIGYIYYRGSTNYNPSLKSRVTISVDTSKNQFSLKLNSVTAADTAIYYCARENLWNWFDPWGQGILVTVSS
VL: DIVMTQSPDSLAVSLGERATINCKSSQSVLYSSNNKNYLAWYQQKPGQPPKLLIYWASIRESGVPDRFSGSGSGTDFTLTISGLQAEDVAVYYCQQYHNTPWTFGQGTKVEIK
no binding (tested: 200 µg/mL): all assays above

B9: COV93-61 (antibody, V domains shown)
VH: EVQLVQSGAEVKKPGESLKISCKGSGYSFTTFWIGWVRQMPGKGLEWVGVIYPDDSDTRYSPSFQGQVTMSADKSINTAYLQWSSLKASDTAVYYCARRNCDAALCYLGTYDYWGQGTVVTVSS
VL: QSALTQPPSASGSPGQSVTISCTGTISDVGRYDFVSWYQHHPGKAPKLIIYEVTKRPSGVPDRFSGSKSGNTASLTVSGLQAEDEADYYCNSYAGHNNFVIFGGGTKLTVL
no binding (tested: 200 µg/mL): all assays above

Source: US20250145690A1 (US Dept. of Health and Human Services, published 2025)
